Results from the supplement of paper PMC9112550, “Optimization of the antimicrobial peptide Bac7 by deep mutational scanning” (BMC Biology, 2022).

System: Escherichia coli TOP10
Assay: shrunken log2 fold change of peptide-encoding DNA abundance (4.5 h post-induction vs induction); higher = less antimicrobial activity (less host growth inhibition)
Details: time post-induction: 4.5 h; library: site-saturation at positions 5, 18, 19, 20
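Also: peptides expressed intracellularly from a pBAD plasmid library in pooled LB shake-flask culture, induced with 0.3% L-arabinose, DNA abundance read by NGS, three biological replicates, DESeq2 with apeglm shrinkage.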

Sequence	shrunken log2 fold change
RRIRNRPPRLPRPRPRPRVWPRP	3.4
RRIRHRPPRLPRPRPRPFVLPRP	-0.0634
RRIRLRPPRLPRPRPRPQEDPRP	-0.0336
RRIRPRPPRLPRPRPRPANLPRP	-0.12
RRIRHRPPRLPRPRPRPWVMPRP	-0.166
RRIRVRPPRLPRPRPRPVLSPRP	-0.11
RRIRCRPPRLPRPRPRPQQQPRP	0.339
RRIRLRPPRLPRPRPRPHEQPRP	0.00509
RRIRRRPPRLPRPRPRPVERPRP	-0.049
RRIRPRPPRLPRPRPRPRMNPRP	0.0159
RRIRQRPPRLPRPRPRPCRYPRP	-0.167
RRIRLRPPRLPRPRPRPSEEPRP	-0.0637
RRIRPRPPRLPRPRPRPLASPRP	0.104
RRIRGRPPRLPRPRPRPNSMPRP	0.0537
RRIRVRPPRLPRPRPRPYAFPRP	-0.0621
RRIRFRPPRLPRPRPRPDREPRP	-0.006
RRIRNRPPRLPRPRPRPNKSPRP	-0.338
RRIRHRPPRLPRPRPRPCMRPRP	0.0267
RRIRVRPPRLPRPRPRPFMDPRP	-0.36
RRIRPRPPRLPRPRPRPMRFPRP	0.0813
RRIRRRPPRLPRPRPRPQGEPRP	0.373
RRIRMRPPRLPRPRPRPTQGPRP	0.805

Sequence	shrunken log2 fold change
RRIRRRPPRLPRPRPRPCFVPRP	0.0292
RRIRMRPPRLPRPRPRPMDDPRP	0.15
RRIRHRPPRLPRPRPRPNHKPRP	-0.973
RRIRSRPPRLPRPRPRPRYSPRP	-0.232
RRIRMRPPRLPRPRPRPISCPRP	-0.0229
RRIRMRPPRLPRPRPRPDAYPRP	0.414
RRIRTRPPRLPRPRPRPVSMPRP	-0.812
RRIRRRPPRLPRPRPRPHLIPRP	-0.293
RRIRVRPPRLPRPRPRPIQLPRP	-0.174
RRIRKRPPRLPRPRPRPRGEPRP	0.764
RRIRLRPPRLPRPRPRPCDAPRP	-0.105
RRIRFRPPRLPRPRPRPMQQPRP	-0.0268
RRIRWRPPRLPRPRPRPYSYPRP	-0.00188
RRIRGRPPRLPRPRPRPWHCPRP	-0.0173
RRIRDRPPRLPRPRPRPLYLPRP	-0.648
RRIRNRPPRLPRPRPRPFYWPRP	-0.0682
RRIRYRPPRLPRPRPRPFYRPRP	-0.0056
RRIRMRPPRLPRPRPRPNTRPRP	0.371
RRIRFRPPRLPRPRPRPRMKPRP	-0.0673
RRIRIRPPRLPRPRPRPMGEPRP	-0.0442
RRIRKRPPRLPRPRPRPQGRPRP	-0.078
RRIRCRPPRLPRPRPRPKCQPRP	0.201

Sequence	shrunken log2 fold change
RRIRTRPPRLPRPRPRPFRKPRP	-0.0396
RRIRRRPPRLPRPRPRPSKMPRP	0.335
RRIRMRPPRLPRPRPRPIYWPRP	-0.0918
RRIRSRPPRLPRPRPRPCPTPRP	-0.138
RRIRPRPPRLPRPRPRPGDNPRP	-0.00764
RRIRWRPPRLPRPRPRPTLHPRP	0.132
RRIRYRPPRLPRPRPRPAKSPRP	-0.156
RRIRCRPPRLPRPRPRPYKSPRP	-1.19
RRIRFRPPRLPRPRPRPHGQPRP	-0.0526
RRIRDRPPRLPRPRPRPQDRPRP	-0.0933
RRIRQRPPRLPRPRPRPEYEPRP	-0.157
RRIRERPPRLPRPRPRPKACPRP	0.0288
RRIRVRPPRLPRPRPRPHDLPRP	-0.226
RRIRNRPPRLPRPRPRPRDFPRP	0.0201
RRIRFRPPRLPRPRPRPRNDPRP	-0.218
RRIRKRPPRLPRPRPRPGVFPRP	0.417
RRIRGRPPRLPRPRPRPLPYPRP	-0.086
RRIRVRPPRLPRPRPRPLPFPRP	-0.367
RRIRLRPPRLPRPRPRPPSKPRP	0.148
RRIRNRPPRLPRPRPRPHCAPRP	0.0341
RRIRPRPPRLPRPRPRPWCGPRP	0.0629
RRIRWRPPRLPRPRPRPRYLPRP	-0.382

Sequence	shrunken log2 fold change
RRIRIRPPRLPRPRPRPASQPRP	-0.073
RRIRERPPRLPRPRPRPCCCPRP	0.15
RRIRERPPRLPRPRPRPRCCPRP	-0.234
RRIRSRPPRLPRPRPRPSQTPRP	-0.128
RRIRQRPPRLPRPRPRPGIIPRP	0.0277
RRIRRRPPRLPRPRPRPQIIPRP	-0.0755
RRIRPRPPRLPRPRPRPSWMPRP	-0.288
RRIRIRPPRLPRPRPRPDGQPRP	-0.0297
RRIRVRPPRLPRPRPRPMATPRP	-0.182
RRIRERPPRLPRPRPRPSCIPRP	-0.455
RRIRYRPPRLPRPRPRPPAFPRP	-0.242
RRIRFRPPRLPRPRPRPPLTPRP	0.354
RRIRERPPRLPRPRPRPDHEPRP	-0.0943
RRIRGRPPRLPRPRPRPDAKPRP	2
RRIRYRPPRLPRPRPRPRMHPRP	-0.156
RRIRPRPPRLPRPRPRPYAAPRP	0.0621
RRIRQRPPRLPRPRPRPLMIPRP	-0.0458
RRIRFRPPRLPRPRPRPYEIPRP	-0.241
RRIRKRPPRLPRPRPRPYFMPRP	-0.501
RRIRNRPPRLPRPRPRPICKPRP	0.0454
RRIRKRPPRLPRPRPRPYVLPRP	-0.234
RRIRNRPPRLPRPRPRPKSIPRP	-0.569

Sequence	shrunken log2 fold change
RRIRIRPPRLPRPRPRPVVTPRP	-0.408
RRIRTRPPRLPRPRPRPHYLPRP	-0.194
RRIRLRPPRLPRPRPRPGIWPRP	0.355
RRIRCRPPRLPRPRPRPAANPRP	0.0789
RRIRHRPPRLPRPRPRPQRPPRP	0.183
RRIRRRPPRLPRPRPRPAYLPRP	-0.35
RRIRPRPPRLPRPRPRPARMPRP	0.487
RRIRLRPPRLPRPRPRPTLGPRP	0.222
RRIRCRPPRLPRPRPRPWLAPRP	-0.298
RRIRERPPRLPRPRPRPRGYPRP	-0.1
RRIRERPPRLPRPRPRPAAQPRP	0.261
RRIRGRPPRLPRPRPRPTSIPRP	0.129
RRIRLRPPRLPRPRPRPANRPRP	-0.133
RRIRIRPPRLPRPRPRPKEPPRP	0.0805
RRIRIRPPRLPRPRPRPGKDPRP	0.00215
RRIRWRPPRLPRPRPRPCDWPRP	0.0315
RRIRRRPPRLPRPRPRPFSNPRP	-0.0243
RRIRQRPPRLPRPRPRPQSPPRP	-0.0301
RRIRHRPPRLPRPRPRPSAVPRP	-0.341
RRIRDRPPRLPRPRPRPPRCPRP	0.551
RRIRQRPPRLPRPRPRPMRDPRP	0.0311
